For 17 sequences, protein production results are on record in a protein production outcome set (Wang et al. 2014).
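Note: failed if final PepcDB status was selected cloned or expressed and not failed if soluble or beyond.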

The nature of the data set: label from the status in PepcDB records.
For “MLELLTLLLPVAAASGWYAAARHHGRNLSAGLNDGLQRAYQTPTDTAIGARADEAFHLLRQIADSSAKTLELQLALGGLLRRSGELSKAIELHERLHSQPQMSDEQLHAIRFELGMDYLSAGLLDRAETVFAGLTATASHGKASLQQMLAIYQSEKDWVRAAECARSLKKFDAGQRNATLAHLLCEQAESAIARGETVAAHAHLQQALAEDPRCVRATLLKSRLALQRQQWAEAGTLLRSVEFQNPAFLPEVIGQLRLCHASLRDMDGYLTYLDYVYQRYRTEAAALLLADELAQREGAPAAASYLTGLLSERSSLNLIRRTLHYAGAATCIDGDCLSILRRCLTALDGLASMHPGYGCVQCGYECRELHWHCPTCRAWETIQPADPGVGFSGKTPATTPS”, the protein production result is “failed”.
Under “MLELLYTALLYLIQPLIWIRLWVRGRKAPAYRKRWGERYGFYRRPLKPGGIMLHSVSVGETLAAIPLVRALRHRYPDLPITVTTMTPTGSERVQSAFGNDVQHVYLPYDLPDALNRFLNKIDPKLVLIMETELWPNLIAALHKRHIPLVIANARLSARSAAGYAKLGKFVRTLLRRITLIAAQNEEDGERFVALGAKNNQVTVTGSLKFDISVTPQLAAKAVTLRRQWAPHRPVWIATSTHDGEESIVIAAHQALLHQFPNLLLILVPRHPERFPDAINLVRQAGLSYITRSSGEVPSASTQVVVGDTMGELMLLYGIADLAFVGGSLVERGGHNPLEAAAHAIPVLMGPHTFNFKDICARLDQASGLITITDAATLAKEVSSLLTDADYRNFYGRHAVEVLYQNQGALQRLLQLLEPYLPPKTHLEHHHHHH” stands “failed”; under “MLETSSHFLKSFRLKRYIGFLLISLALLITPFVRIDGAHLFLISFEHKQLHFLGKIFSAEELQVMPFMVILLFIGIFFITTSLGRVWCGWACPQTFLRVLYRDVIETKIFKLHKKISNKQESPKNTPSYKIRKVLSVLLFAPVVAGLMMLFFFYFIAPEDFFMYLKNPSDHPIAMGFWLFSTAVVLFDIVVVAERFCIYLCPYARVQSVLYDNDTLNPIYDEKRGGALYNNQGHLFPLPPKKRSPENECVNCLHCVQVCPTHIDIRKGLQLECINCLECVDACTITMAKFNRPSLIQWSSTNAINTRQKVHLVRLKTIAYMGVIAIVIALLAITSFKKERMLLDINRNSDLYELRSSGYVDNDYVFLFHNTDNKDHEFYFKVLGQKDIQIKKPLNPIAIKAGQKIKAVVILRKPLKSNATEYKNAKDALIPITIQAYSADDKNITIERESVFIAPSED”, “failed”.
On to “MLETVAGVTIGASCIILTIALTKKLGPEWAWINRKLIHLSIIPAALFFYYGIIPREIFSPAAALFGIAQLLAHVKNRELNWYQLKQNYGEVFFAFSASFITFVFPRDYASALLLVMAISDGVTGIIRHYYFKRNGFNVKLKKHWTGSLGYIITAIIIAVAFLDGNIIEKVGWAFILMLAEYQPWIDDNLAVPLVGSALYFLY”, for which the protein production entry is listed as “failed”.
Under “MLETYALKNGAVFISDAHFLPKSPHLIHTLKELLSAKPPQVFFMGDIFHVLVGYLPLDKEQQKIIDLIHALSEISQVFYFEGNHDFSMRFVFNSKVMVFERQNQPVLFQYDNKRFLLAHGDLFITKAYEFYITQLTSTWARFFLTFLNLLSFKTLYPLFKKLIYQKPVRLWELEPKELQSFIEKRLKAYQNYIKDLNIGSIDGIIEGHFHLKSGAKIPLNTPIYCPLPSFYYEQSLFKVSSSVLEPSQNKDA” stands “failed”.
With “MLEVHIPSVGPEAEGPRQSPEKSHMVFRVEVLCSGRRHTVPRRYSEFHALHKRIKKLYKVPDFPSKRLPNWRTRGLEQRRQGLEAYIQGILYLNQEVPKELLEFLRLRHFPTDPKASNWG”, the protein production result was “not failed”.
Consider “MLFDEKEILAITRWAKLYANQSPDRILLGSNDIPPEYRAAVATQIELWPRLRNKLPQWPGISSLYIPSRLSLEQSSGAVTSSYKSRFIREGTKVVDLTGGLGIDFIALMSKASQGIYIERNDETAVAARHNIPLLLNEGKDLNILTGDFKEYLPLIKTFHSDYIYVDPARRSGADKRVYAIADCEPDLIPLAAELLPFCSSILAKLSPMIDLWDTLQSLPHVQELHVVAAHGEVKELLVRMSLNEATIPPEKVPIHAVNLLSEDTVIPFIFTMEEERSISVPYADSIDKYVYEPHTALFKAGAFKTVAYRLGLRKLHPNSHLYTSEAYESAFPGRTFVLEEIIPFSTSVLKQLGKVVPRASISCRNFPLSPIELRQRSKMADGGEKTLMGTTMADGKKVLLLLRKAE”, for which the protein production entry is given as “failed”.
Take “MLFIPPPLLCLFIAIAMYFLPKIASYSVHFSVIVFVISLSFLIALSSVMQSLYVKPPLILVTLKAQQN”: the protein production result was “failed”.
With “MLFKRPDTETLYFALVNKDPAYEGVAYVCVTSTKIFCRFTCTARKPKIENCRFRETITECLEAGFRPCKRCKPMLSYGTPDGTVTALLTALENEPARRWREEDVVALGHDPSTVRRSFKRRFGMSFLEIARLRRVGDAAESLASGEAVIGAQIDAGYESGSGFRSAINQLFGTSPAAMKGRGFLKGDWIDTPIGPMLAVADDHALHLLEFADRPALPAELKRLKARTGADMVLGRTAVTGQIAAELAAYFAGRSGSFETRLAGHGTPFERDVWRNLREIPAGEIVSYSSLATAMERPTAVRAVARANGANQLAIVVPCHRVLGADGSLTGYGGGLWRKKWLIEHERRMARGLEHHHHHH”, the protein production entry was “not failed”.
Under “MLFSIVVHQMILFFSILLVGNVAAKQGVIQENYLPDLAKLVSKIFLPVLIFYMTYAGTTRQMVWENAAMIGLAALFYVVISAVTWIIAKGLRPAGDKAKVFQFAFIFGNTGFVGVPLLIALFPKDGILYLALFSIVDQLLFWTYGVYLATASDKKAKITLKSFVNPNIVAIALALIFIMIGAKLPTVIDDTLQTIKNAVGAMAMIYLGALIFYSDWKTAFKTKDLYFGIVVKMIILPILLGKLLLMTGLPNNMIWSMIILMSLPTMTVVPMIAKLYGHEGAYAAGITAATLAVSIVTIPVVVFFTT” stands “failed”; under “MLFSSASFVPIVRRMSRPTILPAYILATLPLVMALLATAVSIGTGDEVVNFFRQYRQAHPALTACMQVITDFGNPLLYLVYGAIFFRARKRGDRHDMRFVAVYIVVQLLVSFLAVRILKIGFGMPRPGTEGPAIPFSFKGVYNSFPSGHTTEIVGAVVPLAWRCKALLPTLALGIYMGIVGYSRIYLGMHHITDVFAGLLLGSVAAWIIHRLADRTPS”, “failed”; under “MLFYLYVTRCKQLLNYNNMETDNGDKEKSEEDDLCALKDALEAVILFQGLSEYQKKLMFPNLKNLGAETIKELIDEWKELNVEELNLNIKKQTFFTKFANASWSLMLLIQQENNFCFWMFYVIPTSLFFVCCVLLHLLNDGS”, “failed”.
Consider “MLGLHGRKPAQVIVEPVAKLMIKLKVTPNQLTLVSAGLTVGVALLLIPTGHLIWAAVLTGLFAAFDMIDGTVARMQGGGTKFGATLDATCDRITDGALFGAITWWLVYSYDAPQALVAASLVCLVASQVISYVKARGEASGFTMDGGLVERPERLIVSLVGLGLTGMGVPYAIDVALWALAAGSIYTVVQRLVMAGKSPLAKEFTKAPAGAKADYSNTK”, for which the protein production entry is “failed”.
Under “MLGLVLLYVGIVLISNGICGLTKVDPKSTAVMNFFVGGLSIICNIVVITYSALHPTAPVEGAEDIAQVSHHLTSFYGPATGLLFGFTYLYAAINHTFGLDWRPYSWYSLFVAINTIPAAILSHYSDMLDDHKVLGITEGDWWAIIWLAWGVLWLTAFIENILKIPLGKFTPWLAIIEGILTAWIPAWLLFIQHWV” stands “failed”.
With “MLGSIFTASAVVMILLGLGMLTVFTQRLVDQKIDIASSEIDRARVIVEEQITASGASTSVQARVNSARAALSSLGTSGGTETNAAYDPVVLVNNDDLVVSPEGYQIPERLRYFVSENQVSYQFSSIDQGDGSSYQALIIGTPTESDIPNLQVYLVFSMESDESSLALMRGLLSAALLIVVVLLVGIAWLATQQVTAPVRSASRIAERFAQGKLRERMVVEGEDEMARLAVSFNAMAESLSAQITKLEEYGNLQRQFTSDVSHELRTPLTTVRMAADLIADSEDELSPGARRASQLMNRELDRFESLLSDLLEISRHDAGVAELSTALHDVRIPVRSALEQVQHLATELDVELLVNLPEEAINIQGDSRRIERIIRNLLANAIDHSKGLPVELKVADNVDAVAIVVIDHGVGLKPGQDELVFNRFWRADPSRVRHSGGTGLGLAISREDAMLHGGNLDAAGTIGVGSIFRLVLPKEPHGNYREAPIPLIAPETPWEGEQQ”, the protein production result is “failed”.
As for “MLHDWGVIAAALAYIGFLFVVASWGDRLSQGQRERAGGLIYPLSLAIYCTSWTFFGSVGFASRSSFDFLAIYVGPVLVVLVATPLLRRVIRLAKSQNITSIADFIAARYGKSQKVAATVAIIAIIGSVPYIALQLKAVSSSLQTILGDDHNIADIPIVGDIALIVAMAMALFTVLFGTRQASATEHQHGLMLAVATESIVKLVAFLAAGIFVTFWMFSPSALIERAMQMPEAVRALDSTSPANFLTMTALSFCAFMMLPRQFHVSVVENSNEAEVGRARWLFPLYLVAINLFVIPIALAGLVKFPFGKVDSDMYVLALPIDADAPMLSVAVFIGGLSAATAMVIVECVALAVMVSNDLVMPLVLKRHGAPRPDEQRNFGRFLLTVRRVAIFAILILAYLYYRALGNTQLAAIGLLSFAAIAQFAPSFFGGLIWRRATARGAIGGLLVGFAVWAYTLFIPSFMENSTTGLLLLQHGPWGIEALRPQALFGSDLPPLLHGVLWSLSLNLIAYILLSLLRQPSSIERLQAEVFVPDALTPMTPAFRRWRTTVTVQDIVGAVSQYLGPERARDSFRSFAAGRRITLDPAAPADFELLKHAEHLIASSIGAASSRLVLSLLLRKRTVSAEAALKLLDDSHAALHFNREILQTALNHVRQGIAVFNPELQLICSNRQFGEILGLPPHIIQIGIPLIEILEFLASNSIAPIDAEAHTQMRMAAYTTEGEPFIERFPDRHLVVEVRANRMPDGGLVITFSDVTPSFEAAEALERANATLERRVRERTEELTRLNSQLALAKSTAEEANISKTRFLAAASHDILQPLNAARLYATSLVERQNGGEDSRLVENIDESLQAIEEIIGALLDISRLDAGAMTPSLSNFVIGDLMRSLEIEFSPTARAKGLELTFVPCSLPVQSDRLMLRRLMQNLISNAIKYTPQGRVLVGCRRQGQSLRIGIYDTGVGVPILKRGEIFKEFHRLEQGARIARGLGLGLSIVERLARVLNHGIALDSNRGGGSCFSVTVPVAEAVNHTAAVTSATPLSRASMSGILVVCIENDPAILDGMKTLLTTWDAKVIAVADPEAAIRAIESSEQRVTGLLVDYHLDRGNGIAAIREIRARFGQSIPAILITADRSPGVRASARQEEIAVLNKPVKAASLRALLSQWHAQQSVVAAE”, the protein production result is “failed”.
In the case of “MLHIDDAMIEDAVTPQAAQEVLHAAFLDFGRGSAAMQRRVRTEAGGVKLSTLGAVIPGQGVAGAKVYTTIKGQFQFVILLFSAADGRPLATCDAGTLTRKRTAACTVLAAGALARPRSSVLGLFGAGTQGVEHAAQLSARFALEAILVHDPHASPEVVERIGRRCGVPARMAAPADIAAQADIVVTATRSATPLFAGQALRAGAFVGAIGSSLPHTRELDDEALRRARAVVVEWREQTLSEAGDLVLAAPDTGLDAKVVELADVLAGRATARQADEDIVIYKSVGVGLEDVALAGYAYRRLAAQRGWPAP”, the protein production result is on record as “failed”.
